Target: HA H7 HK17 (A/Hong Kong/125/2017(H7N9)) hemagglutinin (influenza A virus A/Hong Kong/125/2017(H7N9))
Test: BLI

With MEDI8852 Fab (wildtype) the Kd was 0.21 nM.
